The target in one assay is CyPet-Ubc9 (UniProt P63279). Kind of assay: FRET or BRET.
Assay [1] addresses CyPet-NS1 (influenza A virus) (UniProt P03496). Kind of assay: FRET or BRET. In general terms: In BRET a luciferase serves as donor, and the signal depends on an acceptor being close.

By Kd is commonly meant the constant that tells how readily two partners part at equilibrium. Read a high Kd as a looser complex.

Sequence of UniProt P63279 (P63279 whole entry): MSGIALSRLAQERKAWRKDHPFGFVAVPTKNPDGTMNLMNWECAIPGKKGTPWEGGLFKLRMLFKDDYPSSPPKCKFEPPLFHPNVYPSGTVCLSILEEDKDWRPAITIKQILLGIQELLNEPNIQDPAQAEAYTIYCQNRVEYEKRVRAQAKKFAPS
Sequence of UniProt P03496 (P03496 whole entry): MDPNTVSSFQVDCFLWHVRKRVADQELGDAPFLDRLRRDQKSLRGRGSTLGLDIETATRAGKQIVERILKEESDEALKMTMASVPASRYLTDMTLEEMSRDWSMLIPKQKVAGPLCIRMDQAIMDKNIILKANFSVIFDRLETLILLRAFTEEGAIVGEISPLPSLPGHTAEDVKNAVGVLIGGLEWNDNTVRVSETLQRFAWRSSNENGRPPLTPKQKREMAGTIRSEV

In turn, “YPet-NS1 (from UniProt P03496 1-230) (natural protein)” gave a Kd with CyPet-Ubc9 of 4.84 µM.
“YPet-PIAS1 (from UniProt O75925 1-651) (enzyme)” displayed a Kd in assay [1] of 2.96 µM.

The values above are taken from publication doi:10.1101/2025.07.29.667540.
